The target in assay [1] is T1, hCA-IX ECD dimer (dimeric extracellular domain of hCA-IX) (human, UniProt Q16790 38-414). Kind of assay: cell-based or functional assay.
Assay [2] has as its target T1, hCA-IX ECD dimer (dimeric extracellular …). The experiment in a line: SPR; CA-IX immobilized on SA sensor chip, VHH injected. The method, then:
(§1) In vitro binding affinity/SPR. To evaluate the binding affinity (KD) of the VHH only format of the 4 single domain antibodies, CA-IX monomer and dimer were immobilized on SA sensor chip (GE Healthcare) and serial dilutions of the sdAbs were injected over the surface (FIG. 3A).

The target of assay [3] is hCA-IX-ECD monomeric (monomeric parental CA-IX extracellular domain) (human, UniProt Q16790 38-414). The assay is described as above. The method, then: as §1
The target of a further assay is T2, human CA-IV (human, UniProt P22748 19-283, limits assumed).
T2 construct: also called carbonic anhydrase IV
Kind of assay: ELISA on purified protein, binding above background.

A further assay deals with T3, human CA-XIV (human, UniProt Q9ULX7 16-290, limits assumed).
T3 construct: also called carbonic anhydrase XIV
The description is as above.

The target of assay [4] is T4, mouse CA-IX (mouse, UniProt Q8VHB5 32-390, limits assumed). The assay is described as above.
The next assay deals with T5, human CA-XII (human, UniProt O43570 25-291, limits assumed).
T5 construct: also called carbonic anhydrase XII
The assay is described as above.

The next assay concerns the target human CA-II (human, UniProt P00918 1-260). The assay is described as above.
Assay [5] deals with T4, mouse CA-IX. Kind of assay: ELISA on purified protein, 500 nM VHH, binding above background. As to the method:
Cross reactivity and CA-IX specificity. Binding specificity and species cross reactivity of two sdAb were tested in an ELISA assay using purified proteins for human, mouse, cynomolgus monkey and dog CA-IX.
For orientation: ELISA stands for enzyme-linked immunosorbent assay.

This is an account of results in US20240076406A1 (NATIONAL RESEARCH COUNCIL OF CANADA, published 2024).

T2 sequence (P22748 19-283 limits assumed): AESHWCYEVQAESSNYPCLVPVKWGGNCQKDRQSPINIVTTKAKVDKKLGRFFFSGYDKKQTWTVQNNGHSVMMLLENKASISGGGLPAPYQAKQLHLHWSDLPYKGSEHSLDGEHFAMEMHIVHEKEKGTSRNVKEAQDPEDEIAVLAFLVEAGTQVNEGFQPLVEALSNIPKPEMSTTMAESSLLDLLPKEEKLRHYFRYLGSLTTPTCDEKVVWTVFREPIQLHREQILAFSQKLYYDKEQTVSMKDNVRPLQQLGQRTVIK
T5 sequence (O43570 25-291 limits assumed): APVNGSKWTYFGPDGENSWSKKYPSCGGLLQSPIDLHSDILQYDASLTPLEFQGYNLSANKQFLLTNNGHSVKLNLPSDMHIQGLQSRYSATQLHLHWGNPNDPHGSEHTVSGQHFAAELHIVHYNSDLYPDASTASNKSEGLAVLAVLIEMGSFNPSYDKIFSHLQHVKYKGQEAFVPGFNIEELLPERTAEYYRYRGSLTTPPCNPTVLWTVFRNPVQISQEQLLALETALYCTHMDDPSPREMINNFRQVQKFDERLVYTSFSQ
T4 sequence (Q8VHB5 32-390 limits assumed): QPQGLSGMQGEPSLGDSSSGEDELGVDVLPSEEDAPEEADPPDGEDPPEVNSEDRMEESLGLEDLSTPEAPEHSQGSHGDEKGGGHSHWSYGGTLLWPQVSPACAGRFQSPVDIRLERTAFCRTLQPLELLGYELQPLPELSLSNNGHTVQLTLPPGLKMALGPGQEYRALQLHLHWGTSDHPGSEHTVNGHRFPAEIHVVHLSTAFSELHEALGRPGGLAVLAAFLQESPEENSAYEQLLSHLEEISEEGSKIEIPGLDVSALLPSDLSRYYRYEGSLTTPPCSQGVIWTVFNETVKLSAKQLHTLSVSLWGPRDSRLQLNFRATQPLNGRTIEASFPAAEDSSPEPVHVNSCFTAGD
T3 sequence (Q9ULX7 16-290 limits assumed): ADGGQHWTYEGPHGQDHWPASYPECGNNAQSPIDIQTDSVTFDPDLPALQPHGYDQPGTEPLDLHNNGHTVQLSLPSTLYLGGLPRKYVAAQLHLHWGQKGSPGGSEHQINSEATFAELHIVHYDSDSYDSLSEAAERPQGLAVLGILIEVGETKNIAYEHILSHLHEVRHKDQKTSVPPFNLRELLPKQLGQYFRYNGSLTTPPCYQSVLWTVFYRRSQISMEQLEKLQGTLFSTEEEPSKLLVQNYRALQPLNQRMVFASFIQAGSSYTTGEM

B1: sdCA9-2-VHH (VHH)
VHH: QVKLEESGGDLVQPGGSLRLSCAASGFTLDYYAIGWFRQAPGKEREGVSCFSSVDGSTYYADSVKGRFTISRDNAKNMVYLQMNSLKPEDTAIYYCAAELYGELGVATVQAMCRLTTPGGDYWGQGTQVTVSS
notes: Llama VHH expressed in E. coli from the pSJF2 vector and purified by IMAC
As a reminder, the Kd is the concentration at which binding is half-saturated. As for B1, the “IC50 (hCA-IX in vitro enzyme activity, 4Mu-Ac hydrolysis)” value in assay [1] was 0.0484 µM (unit not printed; the text gives the values in nM). Further, the “logIC50 (hCA-IX in vitro enzyme activity, 4Mu-Ac hydrolysis)” value in [1] was -1.13 log10 of IC50 (IC50 in µM; unit not printed). Also, the Kd in assay [2] was 176 nM; in [3], 234 nM. Also, the binding result in the assay with human CA-IV, in the assay with human CA-XIV, in the assay with mouse CA-IX [4], with human CA-XII and with human CA-II was “no binding (tested: 500 nM)” each time.

B2: sdCA9-1-VHH (VHH)
VHH: QVQLVESGGGLVQAGGSLRLSCAASGFTFDDWAIGWFRQAPGKEREGVSCISKRHGTTHYADSVKGRFTISSDNAKNTVYLRMNGLKPEDTAVYYCAASSWGSCTVATMRDVDRYDYDYWGQGTQVTVSS
notes: as for B1
For the molecule B2, the “IC50 (hCA-IX in vitro enzyme activity, 4Mu-Ac hydrolysis)” value in assay [1] is 0.111 µM (unit not printed; the text gives the values in nM). The “logIC50 (hCA-IX in vitro enzyme activity, 4Mu-Ac hydrolysis)” value in [1] is -0.954 log10 of IC50 (IC50 in µM; unit not printed). Moreover, the figures for the Kd in assay [2] and in assay [3] were 37 nM and 28.9 nM, respectively. Besides, the binding result was “no binding (tested: 500 nM)” with human CA-IV; “no binding (tested: 500 nM)” with human CA-XIV; “no binding (tested: 500 nM)” with human CA-XII; “no binding (tested: 500 nM)” with human CA-II; “binds” with mouse CA-IX [5].

B3: sdCA9-3-VHH (VHH)
VHH: QVQLVESGGGLVQAGDSLRLSCAASGGTFSRYGMGWFRQAPGKEREFVAAISGTGLNTYYMDSVKGRFTISRDNAENTVYLQMNSLKPEDTAVYYCARDRGGVEYDYWGQGTQVTVSS
notes: Llama VHH expressed in E. coli from the pSJF2 vector and purified by IMAC; also called sdCA9-3-VHH-VHH
For B3, the Kd in assay [2] came out at 341 nM; in assay [3], 314 nM.
